Data from publication PMC101404.

Substrate: NCC(N)C(=O)O
Experiment: purified protein
Type: biochemical, Salmonella enterica
Settings: potassium phosphate pH 8.0, 28 °C, PLP, NADH, LDH coupling

B1: Diamino propionic acid (DAP) ammonia lyase (Salmonella enterica subsp. enterica serovar Typhimurium str. LT2) (protein)
chain: MHELIKYQFNTRRKKYGTGAALSLLNGNVGHEVLAFHKKLPNYAVTPLHNLAHLSQRLGLGSIHIKDESWRFGLNAFKGLGGSYAVGKYLADKLQCDINSLSFAALNTPEIKEKIKDCVFVTATDGNHGRGVAWAAEQLGLKAVVYMPKGSSLIRAENIRHHGAECTITDLNYDDAVRLAHRMAQTKGWVLLQDTAWTGYEEIPTWIMQGYMTLAVEAYEQLAETNSPLPTHLILQAGVGSFAGSVMGYFVEKMQENIPNIIVVEPHQANCLYQSAVMDDGQPHCVTGDMATIMAGLACGEPNIISWPIIRDNTSCFISADDCLAAKGMRISAAPRPGTDTPFISGESGAIGVGLLYELMNNMHYQDLANRLQLDASAHVLLISTEGDTSPDIYEDIVWNGRSA
  Km: 685 µM
